B1: STAM-binding protein (Homo sapiens), O95630 (parent)
chain: MSDHGDVSLPPEDRVRALSQLGSAVEVNEDIPPRRYFRSGVEIIRMASIYSEEGNIEHAFILYNKYITLFIEKLPKHRDYKSAVIPEKKDTVKKLKEIAFPKAEELKAELLKRYTKEYTEYNEEKKKEAEELARNMAIQQELEKEKQRVAQQKQQQLEQEQFHAFEEMIRNQELEKERLKIVQEFGKVDPGLGGPLVPDLEKPSLDVFPTLTVSSIQPSDCHTTVRPAKPPVVDRSLKPGALSNSESIPTIDGLRHVVVPGRLCPQFLQLASANTARGVETCGILCGKLMRNEFTITHVLIPKQSAGSDYCNTENEEELFLIQDQQGLITLGWIHTHPTQTAFLSSVDLHTHCSYQMMLPESVAIVCSPKFQETGFFKLTDHGLEEISSCRQKGFHPHSKDPPLFCSCSHVTVVDRAVTITDLR
partner: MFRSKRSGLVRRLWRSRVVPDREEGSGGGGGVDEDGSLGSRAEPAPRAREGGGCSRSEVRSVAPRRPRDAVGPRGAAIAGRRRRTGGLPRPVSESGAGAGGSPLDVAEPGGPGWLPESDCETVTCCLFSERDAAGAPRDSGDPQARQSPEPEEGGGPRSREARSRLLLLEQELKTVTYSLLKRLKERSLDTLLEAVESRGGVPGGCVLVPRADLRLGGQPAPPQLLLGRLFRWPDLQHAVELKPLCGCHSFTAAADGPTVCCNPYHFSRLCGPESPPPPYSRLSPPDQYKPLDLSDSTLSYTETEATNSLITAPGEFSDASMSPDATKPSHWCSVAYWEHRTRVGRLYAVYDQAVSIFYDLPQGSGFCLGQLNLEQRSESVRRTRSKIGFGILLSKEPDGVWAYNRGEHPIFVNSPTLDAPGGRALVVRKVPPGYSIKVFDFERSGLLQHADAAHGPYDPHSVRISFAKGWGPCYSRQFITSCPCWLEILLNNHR

Variants of: B1
Settings: with smad6_mouse Smad6, O35182

| effect of a mutation on the interaction | Variant |
| --- | --- |
| increasing interaction | S243A;S245A;S247A |

— IntAct's records for PubMed 11483516
